Results taken from patent US20080318845A1.

Target: rat VPAC1 receptor (rat) (UniProt P30083)
Test: cell-based or functional assay

Sequence of rat VPAC1 receptor (rat) (P30083 31-459): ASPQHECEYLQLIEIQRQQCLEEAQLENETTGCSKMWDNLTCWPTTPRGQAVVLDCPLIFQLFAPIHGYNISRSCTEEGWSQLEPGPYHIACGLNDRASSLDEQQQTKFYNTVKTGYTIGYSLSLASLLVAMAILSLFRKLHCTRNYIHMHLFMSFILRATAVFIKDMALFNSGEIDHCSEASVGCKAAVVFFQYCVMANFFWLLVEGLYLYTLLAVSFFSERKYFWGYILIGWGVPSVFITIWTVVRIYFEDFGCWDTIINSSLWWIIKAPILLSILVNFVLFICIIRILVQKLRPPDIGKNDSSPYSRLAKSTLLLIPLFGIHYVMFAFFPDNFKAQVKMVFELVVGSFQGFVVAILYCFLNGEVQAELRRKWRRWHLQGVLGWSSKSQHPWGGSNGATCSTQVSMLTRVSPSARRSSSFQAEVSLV

EC50, cAMP generation (DiscoveRx) [nM]	Substance
0.07	pituitary adenylate cyclase-activating polypeptide PACAP-27
0.02	vasoactive intestinal peptide (VIP)
